In assay [1] the target is T1, E1E2 of HCV genotype 1a isolate H77c (hepatitis C virus genotype 1a, strain …, UniProt P27958 386-729; P27958 193-382). Put plainly: inferred from GNA capture ELISA binding curve by non-linear regression. On the technique in general: An ELISA detects its analyte on a solid surface through an enzyme-linked reagent.
The target in assay [2] is T1, E1E2 of HCV genotype 1a isolate H77c. Put plainly: GNA capture ELISA on E1E2 of H77c.
The target in assay [3] is E1E2 of HCV isolate H77c with E2 substitution G523A (hepatitis C virus genotype 1a, isolate …, UniProt P27958 386-729; P27958 193-382). Briefly: GNA capture ELISA on alanine-substituted H77c E1E2.
The target of assay [4] is E1E2 of HCV isolate H77c with E2 substitution G530A (hepatitis C virus genotype 1a, isolate …, UniProt P27958 386-729; P27958 193-382). Briefly: GNA capture ELISA on alanine-substituted H77c E1E2.
Assay [5] has as its target E1E2 of HCV isolate H77c with E2 substitution W529A (hepatitis C virus genotype 1a, isolate …, UniProt P27958 386-729; P27958 193-382). Put plainly: GNA capture ELISA on alanine-substituted H77c E1E2.
The target in assay [6] is E1E2 of HCV isolate H77c with E2 substitution D535A (hepatitis C virus genotype 1a, isolate …, UniProt P27958 386-729; P27958 193-382). Put plainly: GNA capture ELISA on alanine-substituted H77c E1E2.
Assay [7] concerns the target E1E2 of HCV genotype 2a isolate JFH-1 (hepatitis C virus genotype 2a, isolate …). Briefly: cell-based or functional assay.

B1: human monoclonal antibody clone 1:7 (antibody, V domains shown)
VH: VQLLEQSGAEVKKPGSSVKVSCQVFGDTFSRYTIQWLRQAPGQGPEWMGNIIPVYNTPNYAQKFQGRLSITADDSTSTAYMELSSLRSEDTAVYFCARVVIPNAIRHTMGYYFDYWGQGTLVTVSS
VL: AELTQSPATLSLSPGERATLSCRASQSVNKYLAWYQQKPGQAPRLLIYDASNRATGIPARFSGSGSGTDFTLTISNLEPEDFAVYYCQQRSDWVTFGGGTKVEIK
notes: also called mAb 1:7
As to B1, the Kd in assay [1] is about 4.1 nM. Further, the EC50 in assay [2] turned out to be 0.67 µg/mL. For the same molecule, the binding result in assay [3], in assay [4], in assay [5] and in assay [6] was “no binding” throughout. Moreover, in assay [7], the “IC50 of neutralization of HCVcc JFH-1 (density of E2 after western blotting)” value is about 0.06 µg/mL.

B2: human monoclonal antibody clone A8 (antibody, V domains shown)
VH: EVQLLESGPGLVKPSGTLSLTCTVSGGSIRSSHWWSWVRQPPGKGLEWIGEVFFSGSTIYNPSLNDRVFMSVDKSKDQVSLRLSSVTAADTAVYYCARSPIKMNQGRMMLDAFDIWGQGTLVIVSS
VL: AELTQSPSSLSAFVGDRVTITCRASQSISRNLNWYQQKPGTAPKVLIYAASSLQSGVPSRFSGSGSGTDFTLTITSLQPEDFATYYCQQSYTTPRTFGQGTKVEVK
notes: also called mAb A8
B2: the Kd in assay [1] is about 2.7 nM. Moreover, it took 0.44 µg/mL to reach a half-maximal effect in assay [2] (EC50). Further, the binding result in assay [3], in assay [4], in assay [5] and in assay [6] was “no binding” throughout. The “IC50 of neutralization of HCVcc JFH-1 (density of E2 after western blotting)” value in assay [7] was about 0.56 µg/mL.

B3: human monoclonal antibody clone L1 (antibody, V domains shown)
VH: EVQLLESGGGVVQPGRSLRLSCAASGFTFSAYGMHWVRQAPGKGLEWVAGIWFDGSNQYYSDSVKGRFTVSRDNSRNTLFLQMNSLRPEDTAVYYCATEVLFGSIKGRYYLENWGQGTLVTVSS
VL: AELTQSPGTLSLSVGERATLSCRASQNIYSGYLGWYQQKPGQPPRLLIYGASNRATGIPDRFSGSGSGTDFTLTISRLESEDFAVYYCQQYGSPPYTFGQGTKVEIK
notes: also called mAb L1; Ll
B3 yielded a Kd in assay [1] of about 15 nM. The molecule further displayed an EC50 in assay [2] of 2.31 µg/mL.

Broadly, the Kd is the free concentration of one partner at which half of the binding sites on the other are occupied at equilibrium, for simple one-to-one binding. A word on the EC50: it is the concentration at which the effect is half-maximal.

Values taken from patent WO2009030872A1 (dated 2009).
